Results reported in the supplement of paper PMC12764529.
± gives the half width of the 95% confidence interval.

What was measured:
[1] = folding stability dG unfold from trypsin proteolysis; higher = more stable
How it was run: (§1)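 Designed mini-proteins (under 80 residues, no cysteine) in a PA-tagged cDNA display construct were digested with trypsin and chymotrypsin. Each protease was used at 11 concentrations (threefold dilutions) plus a no-protease condition, followed by sequencing. K50 was inferred by Bayesian fitting of sequencing counts, and unfolding free energy was derived against a sequence-predicted unfolded-state K50 and a shared folded-state K50, per protease or combined. Only designs with AlphaFold2 dimer inter-PAE above 15 were kept.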

[2] = folding stability dG unfold from chymotrypsin proteolysis; higher = more stable
How it was run: as §1

[3] = folding stability dG unfold (combined trypsin and chymotrypsin); higher = more stable
How it was run: as §1

Row | Sequence | folding stability dG unfold [1] [kcal/mol] | folding stability dG unfold [2] [kcal/mol] | folding stability dG unfold [3] [kcal/mol]
1 | SAGKPKPEETVTLVLEVPKENPIKVEELFEKLPDVKFVEVKVEPLPDDRVLITITVLPEDVEKIKKALGSAG [r5_554_TrMRF] | 3.58 ± 0.28 | 2.13 ± 0.069 | 2.76 ± 0.13
2 | SMVTVDEKEDPNSDNKIYTVSLPENGEDVITITKAPDGTTTVTLHYPDGSTTTKTFPGNTPVTEAIKLLLSA [r9_346_JUSTAS] | 2.23 ± 0.12 | 1.39 ± 0.083 | 1.74 ± 0.15
3 | SAGGSAGGSAPVAYTITITYRDPDGSTRTLTLTFPNLTPEEAKEAAEALPIPASVVSIDITKASAGGSAGGS [r12_886_JUSTAS] | 2.24 ± 0.059 | 3.745 ± 0.035 | 3.29 ± 0.082
4 | SAGGSAGGSKKKIKVIIEVEVNGKKYKIEVEAETEEEAKKKAEEAIKELKKKFPNVKIKKIKPSAGGSAGGS [r12_230_TrROS_Hall] | 2.38 ± 0.13 | 4.08 ± 0.25 | 3.51 ± 0.26
5 | SAGGSAGGSAGGMINIEGSSFEIVQPDGKPIGSESTGSAEELAKKLPSSYSVLPKGVPPSAGGSAGGSAGGS [r10_310_JUSTAS] | 1.67 ± 0.21 | 2.72 ± 0.11 | 2.25 ± 0.27
6 | SAGGSAGGSAGGPEVERFRIPGDNVLVEVVRLEDERIARITFPDGSQLTVPLPPGWEAFSAGGSAGGSAGGS [r10_976_TrMRF] | 0.853 ± 0.031 | 0.851 ± 0.13 | 0.948 ± 0.097
7 | SAGGSKGKAPVKVRFLFLEDGKVVAEAEVEFEVEVPIPPVPPVFVPEEARKALENGDIEKALKLLGSAGGSA [r2_196_TrMRF] | 0.827 ± 0.036 | 1.58 ± 0.035 | 1.36 ± 0.13
8 | SAGGSAGGSAGGMVIVKVHLPNGNTLTFVFPGMTLDEIREELASQGGKIKEIEIVPMENSAGGSAGGSAGGS [r10_572_TrROS] | 2.17 ± 0.07 | 2.323 ± 0.02 | 2.28 ± 0.079
9 | SFGMIEIENEAFLPDGFRFKVEVWVMVDPDNGNLMIMLDIEIEPIPPPPPPPEPKPVKDKNGDWKPANDMSA [r9_898_TrROS] | 1.82 ± 0.14 | 3.79 ± 0.14 | 3.12 ± 0.18
10 | SAGGSAGGSAKPVYKIRIVVKKDGKEFVKEIEVPEDEEEAEALAKELAKKPEVEKVEVEKVSAGGSAGGSAG [r3_310_TrROS_Hall] | 0.739 ± 0.075 | 1.84 ± 0.058 | 1.62 ± 0.18
11 | SAGGKYKIVEITIKVEPGQSPEEIAAEIAKKLAPPGEKVKVKVEKKDGYLRIYIINEETGEVVEEFELSAGG [r13_724_TrROS_Hall] | 1.66 ± 0.051 | 1.91 ± 0.06 | 1.88 ± 0.14
12 | SAGGSAGGSMPVKRELIITVTEPSSGTTRTLVVEVETEEEAEAVVAAVAAVPDRTVTEVRRLASAGGSAGGS [r12_152_JUSTAS] | 0.109 ± 0.083 | 1.26 ± 0.022 | 0.926 ± 0.057
13 | SAGGLAPVYKTEDGVYLITPYNPETGELLETIPISEEDIEELSKEYGRDLTIEEIVKKLGYETEITVASAGG [r13_836_TrMRF] | 0.786 ± 0.057 | 0.99 ± 0.03 | 0.969 ± 0.06
14 | SAGKIKIEVVKREDGYVVVKIRFEDTGEELVITVPKEDEEKVKELAEELAEKLKEEGIEVEVEVRELPPSAG [r5_815_TrROS_Hall] | 2.53 ± 0.11 | 3.09 ± 0.21 | 2.86 ± 0.22
15 | SKPETVTFPFNIPLKDMPLEDIKEEAKEWLRNFGYKVEKPEITPEMLKLLKDMPPGQEIPITITIKVEPKSA [r9_1163_TrROS] | 0.301 ± 0.12 | 1.08 ± 0.18 | 0.828 ± 0.085
16 | SAGGKKVIITKVETNKNGKKTYTVTLYYKDKKTNEWKKVAEFTFESKEEAENAAKELAKKLNLKIIPSAGGS [r16_512_TrROS_Hall] | 3.08 ± 0.087 | 5 ± 0.088 | 4.77 ± 0.11
17 | SAGGSAGGSKKDPEDNPEQAKPPIPPIRVEIYPPDGQPETFEFHSLEEITEWIQERGYTVKIESAGGSAGGS [r12_244_TrROS] | 0.668 ± 0.022 | 1.12 ± 0.051 | 0.974 ± 0.065
18 | SAGGSAGGSAGGNYFMMVVLEIRLPPELKGMSPEEWLKKNGYEVTEIEIKGIYPFPPPDGSAGGSAGGSAGG [r7_62_TrROS] | 2.02 ± 0.12 | 3.31 ± 0.062 | 2.9 ± 0.1
19 | SAGGSAGGIMIDSPEQMEEFAKDFFQNGYHEVPIHVMDPNGNWQTFPFTIEVPPPKPEPDPGKKSAGGSAGG [r6_258_TrROS] | -0.648 ± 0.12 | 0.411 ± 0.25 | 0.111 ± 0.29
20 | SAGMVEVLEEKTDPNSDLVTVTLYAPDVPDGFRVVVYPKDGVPIEISIKRGEEVVLKLPANVEKIEFIGSAG [r14_671_JUSTAS] | 2.55 ± 0.083 | 2.41 ± 0.044 | 2.51 ± 0.092
21 | MKVVFTEEELPDAKVRKVFDPETGTITETVTYPSTSYTVTSTATITSFDPETGKVTITTTVSAPPEAGIPAS [r1_234_JUSTAS] | 1.87 ± 0.05 | 1.31 ± 0.057 | 1.63 ± 0.13
